{"source": "patent US20060292657A1", "about": "“Phex substrates and methods using same” (priority 2003, published 2006)", "assay_in_all_cases": "Kinetic parameters for hydrolysis of internally quenched fluorogenic peptides by secPHEX", "assay_type_in_all_cases": "biochemical, human", "conditions_in_all_cases": "other: 37° C., 10 mM Bis-Tris buffer pH 5.5, 150 mM NaCl", "key": {"[1]": {"substrate": "C[C@H](NC(=O)[C@H](CO)NC(=O)[C@H](CCC(N)=O)NC(=O)[C@@H](NC(=O)[C@H](Cc1c[nH]cn1)NC(=O)[C@H](CCCNC(=N)N)NC(=O)[C@H](CCCNC(=N)N)NC(=O)c1ccccc1N)[C@@H](C)O)C(=O)N[C@@H](CCC(=O)O)C(=O)N[C@@H](CC(=O)O)C(=O)N[C@@H](CC(=O)O)C(=O)N[C@@H](CO)C(=O)N[C@@H](CCC(=O)O)C(=O)N[C@@H](CCCNC(=N)N)C(=O)N[C@@H](CCC(N)=O)C(=O)NCCNc1ccc([N+](=O)[O-])cc1[N+](=O)[O-]", "protocol": "(§1) The human recombinant secPHEX was obtained following the procedure previously described (17, WO 00/50580). Purified secPHEX concentration was determined using the Bradford method (DC protein assay kit; Bio-Rad, Mississauga, ON, Canada). Membrane-bound recombinant human PHEX was expressed in LLC-PK1 cells (17, (WO 00/50580)) and membranes were prepared essentially as described by Guo et al. (34). Briefly, transfected cells resuspended in lysis buffer (150 mM NaCl, 20 mM Tris.HCl, pH 7.6) were disrupted by sonication. Cell debris were removed by centrifugation at 300 g for 15 min at 4 °C. Membranes were collected by centrifugation at 30,000 g for 50 min and solubilized for 2h with 1% n-dodecyl-β-D-maltoside in lysis buffer. Insoluble material was pelleted by centrifugation at 10,000 g for 15 min and protein concentrations of the supernatant determined using the Bradford method described above. PHEX amounts were evaluated by immunoblotting as described previously (17). NEP expression and purification were performed as described previously (36).\n(§2) The hydrolysis of the IQFPs, at 37° C., in 10 mM Bit-Tris buffer pH 5.5 (0.35 to 1.0 ml final volume) containing 150 mM NaCl, was continuously followed measuring the fluorescence at γem=420 nm and γex=320 nm in a Hitachi F-2000™ spectrofluorometer. The cuvefte containing the buffer and the substrate was placed in a thermostatically controlled cell compartment for 5 min before the addition of the enzyme and the increase in fluorescence with time was continuously recorded for 5-10 min. The enzyme concentration for initial rate determination was chosen at a level intended to hydrolyze less than 5% of the substrate present. The slope was converted into micromoles of substrate hydrolyzed per min based on a calibration curve obtained from complete hydrolysis of each peptide. The inner-filter effect was corrected using an empirical equation as previously described (43). The kinetic parameters Km and kcat were calculated by the non-linear regression data analysis Grafit program (42). The kcat/Km values were calculated as the ratio of these two determined parameters. The apparent second order rate constant kcat/Km (*kIt/Km) was determined under pseudo first-order conditions, where [S]<<Km. These determinations were performed in two different substrate concentrations and the errors were less than 5% for any obtained value.\n(§3) To determine the position of cleavage in peptides of the IQFPs combinatorial libraries, the products resulting from hydrolysis by secPHEX were submitted to N-terminal amino acid sequencing in a PPSQ-23protein sequencer (Shimadzu Tokyo, Japan). The scissile bonds in the IQFPs secPHEX substrates derived from PTHrP107-139, FGF-23and MEPE were determined by amino acid sequencing and by MALDI-TOF™ mass spectrometry (TofSpec-E™, Micromass, Manchester, U.K.) after isolation of the fragments resulting from the hydrolysis by secPHEX by analytical HPLC.\n(§4) The assays were performed at 37° C., in 10 mM Bis-Tris buffer pH 5.5, containing 150 mM NaCl. Measurements were made as described under the heading “Experimental Procedures” above. Cleavage sites are indicated as arrows (↓). The standard deviations of the kinetic constants were less than 5%.\n(§5) The assays were performed at 37° C., in 10 mM Bis-Tris buffer pH 5.5, containing 150 mM NaCl. Measurements were made as described under the heading “Experimental Procedures” above. Cleavage sites are indicated by arrows (↓). The standard deviations of the kinetic constants were less than 5%.\n(§6) The assays were. performed at 37° C., in 10 mM Bis-Tris buffer pH 5.5, containing 150 mM NaCl. Measurements were made as described under the heading “Experimental Procedures” above. Cleavage sites are indicated by arrows (↓). The standard deviations of the kinetic constants were less than 5%.\n(§7) The assays were performed at 37° C., in 10 mM Bis-Tris buffer pH 5.5, containing 150 mM NaCl. Measurements were made as described under “Experimental Procedures”. […]"}, "[2]": {"substrate": "C[C@H](NC(=O)[C@H](CO)NC(=O)[C@H](CCCNC(=N)N)NC(=O)[C@@H](NC(=O)[C@H](Cc1c[nH]cn1)NC(=O)[C@H](CCCNC(=N)N)NC(=O)[C@H](CCCNC(=N)N)NC(=O)c1ccccc1N)[C@@H](C)O)C(=O)N[C@@H](CCC(=O)O)C(=O)N[C@@H](CC(=O)O)C(=O)N[C@@H](CC(=O)O)C(=O)N[C@@H](CO)C(=O)N[C@@H](CCC(=O)O)C(=O)N[C@@H](CCCNC(=N)N)C(=O)N[C@@H](CCC(N)=O)C(=O)NCCNc1ccc([N+](=O)[O-])cc1[N+](=O)[O-]", "protocol": "as §1, §2, §3, §4, §5, §6, §7"}, "[3]": {"substrate": "CSCC[C@H](NC(=O)[C@H](CC(C)C)NC(=O)c1ccccc1N)C(=O)N[C@@H](CCSC)C(=O)N[C@@H](CC(=O)O)C(=O)N[C@@H](Cc1ccccc1)C(=O)N[C@@H](CCCNC(=N)N)C(=O)NCC(=O)N[C@@H](CCC(N)=O)C(=O)NCCNc1ccc([N+](=O)[O-])cc1[N+](=O)[O-]", "protocol": "as §1, §2, §3, §4, §5, §6, §7"}, "[4]": {"substrate": "NC(=O)[C@H](CCCCNc1ccc([N+](=O)[O-])cc1[N+](=O)[O-])NC(=O)[C@H](Cc1ccc(O)cc1)NC(=O)[C@H](CC(=O)O)NC(=O)[C@H](CO)NC(=O)[C@H](Cc1ccccc1)NC(=O)CNC(=O)c1ccccc1N", "protocol": "as §1, §2, §3, §4, §5, §6, §7"}}}
{"protein": "human recombinant secPHEX (Homo sapiens) (protein, pure soluble form of PHEX (secPHEX); made in house) SLQAKQEYCLKPECIEAAAAILSKVNLSVDPCDNFFRFACDGWISNNPIPEDMPSYGVYPWLRHNVDLKLKELLEKSISRRRDTEAIQKAKILYSSCMNEKAIEKADAKPLLHILRHSPFRWPVLESNIGPEGVWSERKFSLLQTLATFRGQYSNSVFIRLYVSPDDKASNEHILKLDQATLSLAVREDYLDNSTEAKSYRDALYKFMVDTAVLLGANSSRAEHDMKSVLRLEIKIAEIMIPHENRTSEAMYNKMNISELSAMIPQFDWLGYIKKVIDTRLYPHLKDISPSENVVVRVPQYFKDLFRILGSERKKTIANYLVWRMVYSRIPNLSRRFQYRWLEFSRVIQGTTTLLPQWDKCVNFIESALPYVVGKMFVDVYFQEDKKEMMEELVEGVRWAFIDMLEKENEWMDAGTKRKAKEKARAVLAKVGYPEFIMNDTHVNEDLKAIKFSEADYFGNVLQTRKYLAQSDFFWLRKAVPKTEWFTNPTTVNAFYSASTNQIRFPAGELQKPFFWGTEYPRSLSYGAIGVIVGHEFTHGFDNNGRKYDKNGNLDPWWSTESEEKFKEKTKCMINQYSNYYWKKAGLNVKGKRTLGENIADNGGLREAFRAYRKWINDRRQGLEEPLLPGITFTNNQLFFLSYAHVRCNSYRPEAAREQVQIGAHSPPQFRVNGAISNFEEFQKAFNCPPNSTMNRGMDSCRLW", "values": [{"measurement": "Km", "setting": "[1]", "value": 1.7, "unit": "µM"}, {"measurement": "kcat", "setting": "[1]", "value": 0.15, "unit": "s⁻¹"}, {"measurement": "kcat/Km", "setting": "[1]", "value": 88200, "unit": "M⁻¹ s⁻¹"}, {"measurement": "Km", "setting": "[2]", "value": 3.0, "unit": "µM"}, {"measurement": "kcat", "setting": "[2]", "value": 0.2, "unit": "s⁻¹"}, {"measurement": "kcat/Km", "setting": "[2]", "value": 66700, "unit": "M⁻¹ s⁻¹"}, {"measurement": "Km", "setting": "[3]", "value": 17.0, "unit": "µM"}, {"measurement": "kcat", "setting": "[3]", "value": 0.8, "unit": "s⁻¹"}, {"measurement": "kcat/Km", "setting": "[3]", "value": 45000, "unit": "M⁻¹ s⁻¹"}, {"measurement": "Km", "setting": "[4]", "value": 53.2, "unit": "µM"}, {"measurement": "kcat", "setting": "[4]", "value": 1.3, "unit": "s⁻¹"}, {"measurement": "kcat/Km", "setting": "[4]", "value": 24400, "unit": "M⁻¹ s⁻¹"}]}
